The source of these data is the RNAGym collection of RNA variant scans (doi:10.1073/pnas.2313332121).

This sample holds only a part of the variants without activity. Where only a bound is given, the exact number is not on record here.

B1: TPR 5TU (parent)
chain: GGAUCUUCUCGAUCUAACAAAAAAGACAAAUCUGCCACAAAGCUUGAGAGCAUCUUCGGAUGCAGAGGCGGCAGCCUUCGGUGGCGCGAUAGCGCCAACGUUCUCAACUAUGACACGCAAAACGCGUGCUCCGUUGAAUGGAGUUUAUCAUG

In this series the parent is B1. The series can be described thus: polymerase ribozyme fitness, log enrichment relative to wild type (log ratio); higher = more active; in vitro selection for triplet polymerase activity. An outline of the steps:
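Input and output libraries were sequenced on Illumina after a single in vitro selection round, run in triplicate on PCR-built, transcribed mutant libraries of each subunit of a heterodimeric triplet polymerase ribozyme. Selection annealed libraries to a biotinylated primer, the partner subunit and triplets, incubated them frozen at −7 °C, then gel-excised extended constructs for streptavidin-bead capture and RT-PCR. Genotypes with ≥10 input reads and ≥1 read per output were kept. Fitness is the logarithm, taken in base 2, of genotype enrichment divided by wild-type enrichment, using inverse-variance-weighted replicate averages.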
As to A37U C75A G84A C114U, the “polymerase ribozyme fitness (log ratio)” value was at most -4.2.
The value for C10U C18U A39U A49U U61A G68U U82G A110U G133A was at most -4.2; that for G80U G86U G100A was at most -4.2; that for U7G A20C C38A G83A was -3.16.
Consider U53A C149G, for which the “polymerase ribozyme fitness (log ratio)” value was -3.71.
Turning to G59C C95U G136U, the “polymerase ribozyme fitness (log ratio)” value was -2.05.
The value for C36U C54G U55C C75U C93U U146A was at most -4.2; that for A22G C32G U33G G94A A110C C116G was -4.15.
For the variant A29U A40C G62U G70A G84A C96A U139C, the “polymerase ribozyme fitness (log ratio)” value was at most -4.2.
Take C85U A119C C131G G141C: the “polymerase ribozyme fitness (log ratio)” value is -0.0963.
For the variant C8A A23C C38U A142G, the “polymerase ribozyme fitness (log ratio)” value is at most -4.2.
As for A73G U144G, the “polymerase ribozyme fitness (log ratio)” value was determined as 1.28.
Turning to C63G A73G G94A G136A, the “polymerase ribozyme fitness (log ratio)” value was -0.0432.
With C5A A21U U77A U82G C96G U104G C105A C118U U139C, the “polymerase ribozyme fitness (log ratio)” value is at most -4.2.
The value for A52U C63U C85U C116G was -0.741; that for C87U G136U was -2.59.
The figure for A64C A66U A122G is at most -4.2; for A12G U56A it is -0.197.
A73G A137C U145G: the “polymerase ribozyme fitness (log ratio)” value is -3.74.
The figure for G48A U53C G92C C95U A98C is -1.65; for C5U C14U C38A C57A A66U G67A G84U A110G it is at most -4.2.
The value for G70A U77G U78G C87A A97C A122U was at most -4.2.
Regarding A49G A60U U78C C95A A142C, the “polymerase ribozyme fitness (log ratio)” value is at most -4.2.
The value for G84A C116G A121U was 0.52.
The value for C57U C69U was -0.915; that for A17G A47C U130A was -4.1.
The value for A60U G84C C123G was -3.24; that for A16C G48A C51U C96G was -3.07; that for A37U A49C C95G A97G C108G A138G U146G U151A was at most -4.2.
Regarding A120G G124A, the “polymerase ribozyme fitness (log ratio)” value stood at 0.00161.
Turning to A60C G84A A91G C116U, the “polymerase ribozyme fitness (log ratio)” value is -4.11.
The figure for C8G G81C G86A C132A is at most -4.2.
The figure for G88A U109C A142C is -4.19; for A30C C38U G74A it is at most -4.2; for C57A G59C it is 0.0811.
The figure for C85A C103G is -3.36; for A3G C85A it is -1.17.
In the case of G25A C54A G58A G84A A120G G126U, the “polymerase ribozyme fitness (log ratio)” value is -3.36.
In the case of U13G C18G A22G C54A G100C C116G A120U A147C, the “polymerase ribozyme fitness (log ratio)” value is at most -4.2.
The figure for G48C G59C U82G is 0.0275; for U7C U13G A20C U31A C51U U53G C87G A89G C93U U139C A142U G143U G152A it is at most -4.2.
The figure for A16U A19U A20U A40U G86U C96U is at most -4.2; for A12U A39U U55A G67U G86U C103U it is at most -4.2.
With C32G U45A U56A A91U C93G A107C, the “polymerase ribozyme fitness (log ratio)” value is at most -4.2.
On to A19U A142C, for which the “polymerase ribozyme fitness (log ratio)” value was -1.11.
In the case of U31A G86U C99U, the “polymerase ribozyme fitness (log ratio)” value was -1.18.
Take U7G A21U: the “polymerase ribozyme fitness (log ratio)” value was -2.97.
As to A73G A120G, the “polymerase ribozyme fitness (log ratio)” value came to 0.0734.
Take A24U A30C C38U U45A G92U: the “polymerase ribozyme fitness (log ratio)” value is at most -4.2.
On to A73U C96G A98U A120U A137G, for which the “polymerase ribozyme fitness (log ratio)” value is -2.92.
The figure for G50A G92C is -3.26.
The value for C14A A39U C85G G140A was at most -4.2; that for A17U C35U A40U G92U was -2.32; that for C51A C57G was -2.19.
In the case of G80U G94A C96A U101A C149A, the “polymerase ribozyme fitness (log ratio)” value is at most -4.2.
The figure for C54G C105U is -1.24.
The value for A41G G84U C116U G136U was -3.6; that for A17G A20U A52C A89G C95A A106U U134A was at most -4.2.
The figure for U53A C75U C103U is -3.14; for G59A C85G G100A U134G U144G A150C it is at most -4.2; for C51U C57A G84A U109G C123A it is -1.74.
On to C99U, for which the “polymerase ribozyme fitness (log ratio)” value is -0.26.
The value for A3C A20G C85A was -2.54; that for A20U A23C C72U G88C A91G C99U G140U was at most -4.2; that for C38A A89U C93A G128A was at most -4.2.
As to A28C U31A A91G U104C, the “polymerase ribozyme fitness (log ratio)” value was at most -4.2.
The figure for A28U A41U G67C C93U is at most -4.2.
As for G58C A66G, the “polymerase ribozyme fitness (log ratio)” value is -3.76.
With A47C U56A C85U, the “polymerase ribozyme fitness (log ratio)” value was -0.721.
As for U55A G83U C85A U101C C116A, the “polymerase ribozyme fitness (log ratio)” value was at most -4.2.
The figure for U53A C79G C108U G136A U144G is at most -4.2; for U53A G83U A115C G124A it is -2.73.
The value for C35A A39G was at most -4.2; that for U6A A19G C99A was -2.14; that for C105A A106G was -0.311.
For G94C G143A, the “polymerase ribozyme fitness (log ratio)” value was -1.86.
For A28G G58C C87U C99U, the “polymerase ribozyme fitness (log ratio)” value was at most -4.2.
In the case of U55A A64G, the “polymerase ribozyme fitness (log ratio)” value is -3.3.
The value for A22U C75G C76U G94C A110U A147U was at most -4.2.
In the case of C103U G128A, the “polymerase ribozyme fitness (log ratio)” value was -3.93.
The value for G59C C85A C95U A137C was at most -4.2; that for U4A U7A G42C G48C A66C G67A C72U U101G was at most -4.2.
For the variant G42C U56A C85U C95A U127C G143U, the “polymerase ribozyme fitness (log ratio)” value was at most -4.2.
